Test results as given in US7094873 (University of Texas, dated 2006).

Experiments:
[1] = target: T1, Fragments of Hsc70 in frame with the GAL4 activation domain (five prey clones, human heart cDNA library in … (human, UniProt P11142 394-646, limits assumed)); experiment: yeast two-hybrid
T1 construct: domain: carboxyl terminus

[2] = target: T2, Fragments of Hsp70 in frame with the GAL4 activation domain (three prey clones, human heart cDNA library in … (human, UniProt P0DMV8 417-641, limits assumed)); experiment: yeast two-hybrid
T2 construct: domain: carboxyl terminus; Three clones treated as one molecule

[3] = target: SV40 large T antigen (negative control protein, Clontech) (SV40, UniProt P03070 84-708); experiment: yeast two-hybrid
Human Hsp70 (Stressgen) [4] = target: T3, Human Hsp70 (Stressgen) (human, UniProt P0DMV8 1-641); experiment: cell-based or functional assay
Human Hsp40 (Stressgen) = target: T4, Human Hsp40 (Stressgen) (human, UniProt P25685 1-340); experiment: GST pulldown on glutathione-Sepharose beads, immunoblot
T4 construct: also called co-chaperone Hsp40

Bovine Hsc70 (Stressgen) = target: T5, Bovine Hsc70 (Stressgen) (bovine, UniProt P19120 2-650); experiment: GST-hCHIP fragments, in vitro binding assay, immunoblot
T5 construct: also called purified Hsc70

[5] = target: T6, GST-Hsc70 (amino acid residues 1-540) (UniProt P11142 1-540); experiment: GST-Hsc70 deletion mutants on beads with 35S-labeled hCHIP, autoradiography
T6 construct: range 1-540; From E. Ungewickell; also called pGEXHsc70 (1-540); not shown: glutathione S-transferase (GST) of a pGEX vector

Human Hsp70 (Stressgen) [6] = target: T3, Human Hsp70 (Stressgen); experiment: GST-hCHIP fragments, in vitro binding assay, immunoblot

T3 sequence (P0DMV8 whole entry): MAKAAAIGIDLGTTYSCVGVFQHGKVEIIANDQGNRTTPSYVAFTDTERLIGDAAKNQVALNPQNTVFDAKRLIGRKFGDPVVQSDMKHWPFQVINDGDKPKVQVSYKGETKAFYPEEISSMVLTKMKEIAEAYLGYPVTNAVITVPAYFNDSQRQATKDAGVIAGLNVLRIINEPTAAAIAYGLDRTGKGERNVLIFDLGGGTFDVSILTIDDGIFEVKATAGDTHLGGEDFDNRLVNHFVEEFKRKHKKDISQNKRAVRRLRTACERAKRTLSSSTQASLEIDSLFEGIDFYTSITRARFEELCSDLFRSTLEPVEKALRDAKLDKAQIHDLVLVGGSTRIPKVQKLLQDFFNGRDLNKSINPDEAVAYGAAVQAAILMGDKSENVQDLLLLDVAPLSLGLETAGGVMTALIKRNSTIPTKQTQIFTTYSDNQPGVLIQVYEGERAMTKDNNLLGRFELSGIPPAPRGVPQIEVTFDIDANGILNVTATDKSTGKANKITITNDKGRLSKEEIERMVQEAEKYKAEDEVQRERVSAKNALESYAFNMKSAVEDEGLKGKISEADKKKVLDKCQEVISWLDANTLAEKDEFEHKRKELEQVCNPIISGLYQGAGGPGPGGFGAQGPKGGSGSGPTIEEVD
T5 sequence (P19120 2-650 limits assumed): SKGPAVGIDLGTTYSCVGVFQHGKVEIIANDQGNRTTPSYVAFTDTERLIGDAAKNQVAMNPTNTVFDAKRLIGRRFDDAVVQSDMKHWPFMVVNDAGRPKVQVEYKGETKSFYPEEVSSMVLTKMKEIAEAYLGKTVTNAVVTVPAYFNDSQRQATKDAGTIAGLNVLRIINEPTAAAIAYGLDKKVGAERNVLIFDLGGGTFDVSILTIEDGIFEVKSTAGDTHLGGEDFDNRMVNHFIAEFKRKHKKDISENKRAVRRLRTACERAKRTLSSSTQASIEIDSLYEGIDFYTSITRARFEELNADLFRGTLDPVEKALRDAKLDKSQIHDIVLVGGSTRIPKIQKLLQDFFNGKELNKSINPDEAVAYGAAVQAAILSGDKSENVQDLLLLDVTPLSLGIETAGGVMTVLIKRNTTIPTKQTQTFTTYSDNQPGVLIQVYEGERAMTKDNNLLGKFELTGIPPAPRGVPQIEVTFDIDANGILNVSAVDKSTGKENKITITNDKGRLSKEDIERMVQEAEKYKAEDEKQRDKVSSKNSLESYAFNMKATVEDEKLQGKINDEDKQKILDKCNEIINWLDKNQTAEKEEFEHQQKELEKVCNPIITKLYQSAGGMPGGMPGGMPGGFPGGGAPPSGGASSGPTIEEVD
T6 sequence (P11142 1-540): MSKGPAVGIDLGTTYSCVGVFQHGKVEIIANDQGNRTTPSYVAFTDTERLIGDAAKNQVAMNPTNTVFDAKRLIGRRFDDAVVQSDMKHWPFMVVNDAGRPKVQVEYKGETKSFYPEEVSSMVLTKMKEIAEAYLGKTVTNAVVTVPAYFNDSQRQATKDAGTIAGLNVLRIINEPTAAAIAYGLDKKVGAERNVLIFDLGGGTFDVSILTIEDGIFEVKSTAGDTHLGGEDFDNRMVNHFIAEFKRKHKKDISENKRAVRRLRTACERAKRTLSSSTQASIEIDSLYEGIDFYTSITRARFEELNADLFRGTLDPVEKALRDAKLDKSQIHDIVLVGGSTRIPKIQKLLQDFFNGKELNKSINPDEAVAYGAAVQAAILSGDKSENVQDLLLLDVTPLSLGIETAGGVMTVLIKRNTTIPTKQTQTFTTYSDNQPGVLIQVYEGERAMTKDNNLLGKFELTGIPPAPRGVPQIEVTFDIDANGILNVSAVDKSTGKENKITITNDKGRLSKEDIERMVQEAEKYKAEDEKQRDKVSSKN
T1 sequence (P11142 394-646 limits assumed): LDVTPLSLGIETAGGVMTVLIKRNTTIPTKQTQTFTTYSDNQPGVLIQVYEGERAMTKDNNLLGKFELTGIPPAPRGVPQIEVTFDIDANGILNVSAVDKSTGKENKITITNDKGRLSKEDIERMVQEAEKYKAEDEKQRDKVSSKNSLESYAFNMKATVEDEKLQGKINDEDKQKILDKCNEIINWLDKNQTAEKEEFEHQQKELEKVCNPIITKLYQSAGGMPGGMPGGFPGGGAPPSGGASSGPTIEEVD
Sequence of SV40 large T antigen (negative control protein, Clontech) (P03070 84-708 limits assumed): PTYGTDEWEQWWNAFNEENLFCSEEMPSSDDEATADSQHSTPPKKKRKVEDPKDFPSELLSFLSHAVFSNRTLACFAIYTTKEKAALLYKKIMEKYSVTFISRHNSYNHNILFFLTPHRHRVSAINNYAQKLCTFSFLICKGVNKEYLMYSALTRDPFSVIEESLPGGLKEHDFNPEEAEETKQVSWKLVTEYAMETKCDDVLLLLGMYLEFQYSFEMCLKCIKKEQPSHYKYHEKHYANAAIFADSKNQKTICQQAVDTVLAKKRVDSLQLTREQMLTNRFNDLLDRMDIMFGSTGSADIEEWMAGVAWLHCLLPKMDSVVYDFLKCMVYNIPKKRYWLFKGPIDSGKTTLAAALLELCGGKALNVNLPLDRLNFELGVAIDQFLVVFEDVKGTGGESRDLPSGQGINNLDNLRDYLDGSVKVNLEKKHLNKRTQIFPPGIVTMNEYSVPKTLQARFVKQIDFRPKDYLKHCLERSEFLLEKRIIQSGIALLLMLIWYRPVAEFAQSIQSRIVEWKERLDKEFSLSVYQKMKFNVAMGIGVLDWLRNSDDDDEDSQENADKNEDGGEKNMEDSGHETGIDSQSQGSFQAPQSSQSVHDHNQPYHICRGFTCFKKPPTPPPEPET
T2 sequence (P0DMV8 417-641 limits assumed): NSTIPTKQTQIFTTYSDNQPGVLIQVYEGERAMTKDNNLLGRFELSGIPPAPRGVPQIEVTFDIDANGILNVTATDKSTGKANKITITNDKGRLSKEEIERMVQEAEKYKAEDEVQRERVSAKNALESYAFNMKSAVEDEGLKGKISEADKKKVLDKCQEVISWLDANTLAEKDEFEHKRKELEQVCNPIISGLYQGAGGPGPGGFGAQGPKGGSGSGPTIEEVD
T4 sequence (P25685 whole entry): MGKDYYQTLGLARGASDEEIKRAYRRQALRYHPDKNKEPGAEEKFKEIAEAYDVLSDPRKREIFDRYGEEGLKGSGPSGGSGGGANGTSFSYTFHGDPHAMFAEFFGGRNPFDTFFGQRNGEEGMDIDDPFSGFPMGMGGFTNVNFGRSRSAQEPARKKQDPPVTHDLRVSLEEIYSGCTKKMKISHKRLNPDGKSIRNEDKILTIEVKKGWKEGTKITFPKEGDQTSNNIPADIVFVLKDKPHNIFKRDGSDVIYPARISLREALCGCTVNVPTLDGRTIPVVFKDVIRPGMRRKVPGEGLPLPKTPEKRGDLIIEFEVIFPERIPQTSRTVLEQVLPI

B1: lamin C (negative control, yeast two-hybrid) (other, UniProt P02545-2 66-230, looked up)
chain: SEEVVSREVSGIKAAYEAELGDARKTLDSVAKERARLQLELSKVREEFKELKARNTKKEGDLIAAQARLKDLEALLNSKEAALSTALSEKRTLEGELHDLRGQVAKLEAALGEAKKQLQDEMLRRVDAENRLQTMKEELDFQKNIYSEELRETKRRHETRLVEID
B1: no binding [1]; no binding [2].

B2: Full-length hCHIP fused to the GAL4 DNA-binding domain (bait, plasmid pAS2-1) (other)
chain: MKLLSSIEQACDICRLKKLKCSKEKPKCAKCLKNNWECRYSPKTKRSPLTRAHLTEVESRLERLEQLFLLIFPREDLDMILKMDSLQDIKALLTGLFVQDNVNKDAVTDRLASVETDMPLTLRQHRISATSSSEESSNKGQRQLTVSMKGKEEKEGGARLGAGGGSPEKSPSAQELKEQGNRLFVGRKYPEAAACYGRVITRNPLVAVYYTNRALCYLKMQQHEQALADCRRALELDGQSVKAHFFLGQCQLEMESYDEAIANLQRAYSLAKEQRLNFGDDIPSALRIAKKKRWNSIEERRIHQESELHSYLSRLIAAERERELEECQRNHEGDEDDSHVRAQQACIEAKHDKYMADMDELFSQVDEKRKKRDIPDYLCGKISFELMREPCITPSGITYDRKDIEEHLQRVGHFDPVTRSPLTQEQLIPNLAMKEVIDAFISENGWVEDY
notes: Expressed in yeast strain CG-1945
B2: no binding [3].

B3: Recombinant hCHIP (His-tagged fusion from plasmid pET-hCHIP, expressed in E. coli BL21) (other, not shown: small tags and cut ends)
chain: MKGKEEKEGGARLGAGGGSPEKSPSAQELKEQGNRLFVGRKYPEAAACYGRVITRNPLVAVYYTNRALCYLKMQQHEQALADCRRALELDGQSVKAHFFLGQCQLEMESYDEAIANLQRAYSLAKEQRLNFGDDIPSALRIAKKKRWNSIEERRIHQESELHSYLSRLIAAERERELEECQRNHEGDEDDSHVRAQQACIEAKHDKYMADMDELFSQVDEKRKKRDIPDYLCGKISFELMREPCITPSGITYDRKDIEEHLQRVGHFDPVTRSPLTQEQLIPNLAMKEVIDAFISENGWVEDY
In the case of B3, the “luciferase refolding: decrease of the folding activity of Hsp70” value (Human Hsp70 (Stressgen) [4]) is reported as 65% and the “luciferase refolding: decrease of the folding activity of Hsp70/Hsp40” value (Human Hsp70 (Stressgen) [4]) is reported as 64%.

B4: GST-hCHIP fusion protein (amino acid residues 1-303) (other)
chain: MKGKEEKEGGARLGAGGGSPEKSPSAQELKEQGNRLFVGRKYPEAAACYGRVITRNPLVAVYYTNRALCYLKMQQHEQALADCRRALELDGQSVKAHFFLGQCQLEMESYDEAIANLQRAYSLAKEQRLNFGDDIPSALRIAKKKRWNSIEERRIHQESELHSYLSRLIAAERERELEECQRNHEGDEDDSHVRAQQACIEAKHDKYMADMDELFSQVDEKRKKRDIPDYLCGKISFELMREPCITPSGITYDRKDIEEHLQRVGHFDPVTRSPLTQEQLIPNLAMKEVIDAFISENGWVEDY
notes: also called GST-CHIP; not shown: glutathione S-transferase (GST) encoded by vector pGEX KG
B4: no binding (Human Hsp40 (Stressgen)); binds (Bovine Hsc70 (Stressgen)).

B5: 35S-labeled, in vitro translated hCHIP (43-kD S-tagged fusion from vector pCITE-4a) (other)
chain: MKGKEEKEGGARLGAGGGSPEKSPSAQELKEQGNRLFVGRKYPEAAACYGRVITRNPLVAVYYTNRALCYLKMQQHEQALADCRRALELDGQSVKAHFFLGQCQLEMESYDEAIANLQRAYSLAKEQRLNFGDDIPSALRIAKKKRWNSIEERRIHQESELHSYLSRLIAAERERELEECQRNHEGDEDDSHVRAQQACIEAKHDKYMADMDELFSQVDEKRKKRDIPDYLCGKISFELMREPCITPSGITYDRKDIEEHLQRVGHFDPVTRSPLTQEQLIPNLAMKEVIDAFISENGWVEDY
modifications: 35S-methionine labeled
notes: Made in rabbit reticulocyte lysate; not shown: S-tag and vector-encoded residues of pCITE-4a
B5: no binding [5].

B6: GST-hCHIP fusion protein (amino acid residues 1-142) (other)
chain: MKGKEEKEGGARLGAGGGSPEKSPSAQELKEQGNRLFVGRKYPEAAACYGRVITRNPLVAVYYTNRALCYLKMQQHEQALADCRRALELDGQSVKAHFFLGQCQLEMESYDEAIANLQRAYSLAKEQRLNFGDDIPSALRIA
notes: Contains the three TPR domains; also called GST construct 2; not shown: glutathione S-transferase (GST) encoded by vector pGEX KG
B6: no binding (Bovine Hsc70 (Stressgen)); no binding (Human Hsp70 (Stressgen) [6]).

B7: GST-hCHIP fusion protein (amino acid residues 1-197) (other)
chain: MKGKEEKEGGARLGAGGGSPEKSPSAQELKEQGNRLFVGRKYPEAAACYGRVITRNPLVAVYYTNRALCYLKMQQHEQALADCRRALELDGQSVKAHFFLGQCQLEMESYDEAIANLQRAYSLAKEQRLNFGDDIPSALRIAKKKRWNSIEERRIHQESELHSYLSRLIAAERERELEECQRNHEGDEDDSHVRAQQ
notes: TPR domains plus the adjacent charged domain; also called GST construct 4; not shown: glutathione S-transferase (GST) encoded by vector pGEX KG
B7: binds (Bovine Hsc70 (Stressgen)); binds (Human Hsp70 (Stressgen) [6]).
